Values of other authors in PMC8869670.

Target: Thioredoxin (Homo sapiens) (UniProt P10599)
Sequence (P10599 2-105): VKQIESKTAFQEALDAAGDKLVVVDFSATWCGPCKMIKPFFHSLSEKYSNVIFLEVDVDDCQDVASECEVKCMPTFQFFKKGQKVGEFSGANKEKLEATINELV

Kd: 900 nM
Substance: p53 (from UniProt P04637)
